Broadly, the Kd is the free concentration of one partner at which half of the binding sites on the other are occupied at equilibrium, for simple one-to-one binding. A higher Kd goes with weaker binding.

The target in this data set is human alpha-thrombin (Homo sapiens, UniProt P00734;P00734 315-363;364-622). Description: ITC; ITC in PBS (10 mM phosphate, 2.7 mM KCl, 137 mM NaCl), pH 7.4, 22 °C; ODN 25 or 100 µM into thrombin 2.5 or 10 µM. In general terms: Isothermal titration calorimetry measures the heat released or taken up as one component is titrated into another.

B1: AA (structured_DNA)
DNA 1: GGTTGGTGTGGTTGGA
DNA 2: GGTTGGTGTGGTTGGA
modifications: 3'-3' phosphodiester inversion joins the two listed segments covalently (both written 5' to 3'); one molecule, not a duplex
In the case of B1, binding was put at a Kd of 10 nM.

As to GGTTGGTGTGGTTGG (structured_DNA) [TBA], binding was characterised by a dissociation constant (Kd) of 8 nM.

These data come from article PMC6591170.
